Measurements from patent publication US20160122421A1 (IPIERIAN, published 2016).

T1: eTau-4 peptide
T1 construct: also called synthetic eTau4 polypeptide
T1 peptide: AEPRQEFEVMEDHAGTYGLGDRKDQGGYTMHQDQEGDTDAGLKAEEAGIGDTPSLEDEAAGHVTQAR

T2: eTau 2
T2 construct: member of the group m9
T2 polypeptide: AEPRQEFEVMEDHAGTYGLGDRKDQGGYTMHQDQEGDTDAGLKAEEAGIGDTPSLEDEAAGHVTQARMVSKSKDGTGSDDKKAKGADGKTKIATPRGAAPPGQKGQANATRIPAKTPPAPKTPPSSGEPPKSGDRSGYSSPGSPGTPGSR

T3: eTau 1b
T3 construct: member of the group m9
T3 polypeptide: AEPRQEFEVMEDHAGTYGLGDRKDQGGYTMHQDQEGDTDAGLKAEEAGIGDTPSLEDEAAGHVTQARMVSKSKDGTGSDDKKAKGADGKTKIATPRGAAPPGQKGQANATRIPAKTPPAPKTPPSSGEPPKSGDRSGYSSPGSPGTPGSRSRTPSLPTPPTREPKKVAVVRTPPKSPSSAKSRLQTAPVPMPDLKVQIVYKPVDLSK

B1: humanized IPN002 variant VH2/Vk2 (antibody, V domains shown)
VH: EVHLVESGGALVKPGGSLRLSCAASGFSFSKYGMSWVRQAPGKGLEWVATISSSGSRTYYPDSVKGRFTISRDNAKNTLYLQMNSLRAEDTAMYYCSISWDGAMDYWGQGTTVTVSS
VL: DVVMTQSPLSLPVTLGQPASISCKSSQSIVHSNGNTYLEWYLQKPGQSPQLLVYKVSNRFSGVPDRFSGSGSGTDFTLKISRVEAEDVGTYYCFQGSLVPWAFGGGTKVEIK
B2: VH1/Vk1 (antibody, V domains shown)
VH: EVHLVESGGALVKPGGSLRLSCAASGFSFSKYGMSWVRQAPGKGLEWVATISSSGSRTYYPDSVKGRFTISRDNAKNTLYLQMSSLKSEDTAMYYCSISWDGAMDYWGQGTSVTVSS
VL: DVLMTQSPLSLPVTLGQPASISCKSSQSIVHSNGNTYLEWYLQKPGQSPQLLVYKVSNRFSGVPDRFSGSGSGTDFTLKISRVEAEDVGTYYCFQGSLVPWAFGGGTKVEIK
notes: member of the group m7; also called humanized IPN002 variant VH1/Vk1
B3: VH1/Vk2 (antibody, V domains shown)
VH: EVHLVESGGALVKPGGSLRLSCAASGFSFSKYGMSWVRQAPGKGLEWVATISSSGSRTYYPDSVKGRFTISRDNAKNTLYLQMSSLKSEDTAMYYCSISWDGAMDYWGQGTSVTVSS
VL: DVVMTQSPLSLPVTLGQPASISCKSSQSIVHSNGNTYLEWYLQKPGQSPQLLVYKVSNRFSGVPDRFSGSGSGTDFTLKISRVEAEDVGTYYCFQGSLVPWAFGGGTKVEIK
notes: member of the group m7; also called humanized IPN002 variant VH1/Vk2
B4: VH1/Vk3 (antibody, V domains shown)
VH: EVHLVESGGALVKPGGSLRLSCAASGFSFSKYGMSWVRQAPGKGLEWVATISSSGSRTYYPDSVKGRFTISRDNAKNTLYLQMSSLKSEDTAMYYCSISWDGAMDYWGQGTSVTVSS
VL: DVVMTQSPLSLPVTLGQPASISCKSSQSIVHSNGNTYLEWYLQKPGQSPQLLVYKVSNRFSGVPDRFSGSGSGTDFTLKISRVEAEDVGVYYCFQGSLVPWAFGGGTKVEIK
notes: member of the group m7; also called humanized IPN002 variant VH1/Vk3
B5: VH1/Vk4 (antibody, V domains shown)
VH: EVHLVESGGALVKPGGSLRLSCAASGFSFSKYGMSWVRQAPGKGLEWVATISSSGSRTYYPDSVKGRFTISRDNAKNTLYLQMSSLKSEDTAMYYCSISWDGAMDYWGQGTSVTVSS
VL: DVVMTQSPLSLPVTLGQPASISCKSSQSIVHSNGNTYLEWYLQKPGQSPQLLIYKVSNRFSGVPDRFSGSGSGTDFTLKISRVEAEDVGVYYCFQGSLVPWAFGGGTKVEIK
notes: member of the group m7; also called humanized IPN002 variant VH1/Vk4
B6: VH2/Vk4 (antibody, V domains shown)
VH: EVHLVESGGALVKPGGSLRLSCAASGFSFSKYGMSWVRQAPGKGLEWVATISSSGSRTYYPDSVKGRFTISRDNAKNTLYLQMNSLRAEDTAMYYCSISWDGAMDYWGQGTTVTVSS
VL: DVVMTQSPLSLPVTLGQPASISCKSSQSIVHSNGNTYLEWYLQKPGQSPQLLIYKVSNRFSGVPDRFSGSGSGTDFTLKISRVEAEDVGVYYCFQGSLVPWAFGGGTKVEIK
notes: member of the group m7; also called humanized IPN002 variant VH2/Vk4
B7: VH3/Vk1 (antibody, V domains shown)
VH: EVQLVESGGALVKPGGSLRLSCAASGFSFSKYGMSWVRQAPGKGLEWVATISSSGSRTYYPDSVKGRFTISRDNAKNTLYLQMNSLRAEDTAMYYCSISWDGAMDYWGQGTTVTVSS
VL: DVLMTQSPLSLPVTLGQPASISCKSSQSIVHSNGNTYLEWYLQKPGQSPQLLVYKVSNRFSGVPDRFSGSGSGTDFTLKISRVEAEDVGTYYCFQGSLVPWAFGGGTKVEIK
notes: member of the group m7; also called humanized IPN002 variant VH3/Vk1

What was measured:
eTau-4 peptide = target: T1, eTau-4 peptide; assay: relative binding affinity, method not named (Table 4); sixth column, headed eTau 4
[1] = target: T4, 383 amino acid recombinant tau (UniProt P10636-6 1-383, biotinylated where printed as biotin-rTau383 (position not given)); assay: Octet
T4 construct: also called rTau383

eTau 2 = target: T2, eTau 2; assay: relative binding affinity, method not named (Table 4)
eTau 1b = target: T3, eTau 1b; assay: as above
[2] = target: eTau1a (amino acids 2-166 of fetal tau) (Homo sapiens (Human), UniProt P10636 2-541); assay: as above
[3] = target: T4, 383 amino acid recombinant tau; assay: as above
[4] = target: eTau 4 (FIG. 17); assay: relative binding affinity, method not named (Table 4); fifth column, headed eTau 4

T4 sequence (P10636 other isoform, or with tags, fused parts or gaps limits assumed): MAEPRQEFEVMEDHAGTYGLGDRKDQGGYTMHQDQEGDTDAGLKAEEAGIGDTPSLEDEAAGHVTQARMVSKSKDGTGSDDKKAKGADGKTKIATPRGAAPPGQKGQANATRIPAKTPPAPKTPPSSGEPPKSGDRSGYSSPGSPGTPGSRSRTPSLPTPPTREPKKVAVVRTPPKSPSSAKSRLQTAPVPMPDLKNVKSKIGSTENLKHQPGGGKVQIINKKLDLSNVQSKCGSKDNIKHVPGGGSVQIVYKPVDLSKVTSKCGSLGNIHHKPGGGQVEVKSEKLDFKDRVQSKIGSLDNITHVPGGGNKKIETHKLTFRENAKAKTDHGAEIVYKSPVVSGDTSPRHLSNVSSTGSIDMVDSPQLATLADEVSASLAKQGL

Row | Kd (eTau-4 peptide) [nM] | Kd [1] [nM] | koff [1] [s⁻¹] | kon [1] [M⁻¹ s⁻¹] | Kd (eTau 2) [nM] | Kd (eTau 1b) [nM] | Kd [2] [nM] | Kd [3] [nM] | Kd [4] [nM] | Binder
1 | 0.394 | 0.232 | 4.75e-05 | 205000 | 0.283 | 0.229 | 0.327 | 0.199 | 0.294 | B1
2 | 0.577 | 0.0426 | 8.75e-06 | 206000 | 0.465 | 0.737 | 0.294 | 0.183 | 0.358 | B2
3 | 0.633 | 0.446 | 8.74e-05 | 196000 | 0.361 | 0.558 | 0.212 | 0.121 | 0.321 | B3
4 | 0.761 | 1.28 | 0.000233 | 182000 | 0.444 | 0.59 | 0.291 | 0.175 | 0.478 | B4
5 | 0.869 | 0.571 | 9.52e-05 | 167000 | 0.427 | 0.597 | 0.252 | 0.286 | 0.269 | B5
6 | 0.671 | 1.66 | 0.000236 | 142000 | 0.354 | 0.52 | 0.343 | 0.248 | 0.418 | B6
7 | 0.921 | 1.99 | 0.000257 | 129000 | 0.705 | 0.529 | 0.241 | 0.236 | 0.454 | B7
